From US20060167238, “Gene expression using metal ion dependent repressor/operator tandems” (ADVANCED MICROBIAL SOLUTIONS CORPORATION, published 2006)

B1: tacP (dsDNA)
DNA 1: CCCTGTTGACAATTAATCATCGGCTCGTATAATGTGTGGAATTGTGAGCGGATAACAATTTCA
DNA 2: TGAAATTGTTATCCGCTCACAATTCCACACATTATACGAGCCGATGATTAATTGTCAACAGGG
B2: tacPtoxO hybrid promoter/operator (dsDNA)
DNA 1: CCCTGTTGACAATTAATCACCGGTACCTATAATTAGGATAGCTTTACCTAATTATTTTACACCC
DNA 2: GGGTGTAAAATAATTAGGTAAAGCTATCCTAATTATAGGTACCGGTGATTAATTGTCAACAGGG
B3: sitABC box (dsDNA)
DNA 1: AACTTGACATGTTAAAACTTTAGAGTATATTATAAAATAAATTAGGTTAACCTAAACTTTTTATTAGGAGG
DNA 2: CCTCCTAATAAAAAGTTTAGGTTAACCTAATTTATTTTATAATATACTCTAAAGTTTTAACATGTCAAGTT
B4: efaABC promoter/operator (efa box) (dsDNA)
DNA 1: TTTTCTTAAACTATCCCTTATACTGATTTTAAGGCAAACCTAAAAA
DNA 2: TTTTTAGGTTTGCCTTAAAATCAGTATAAGGGATAGTTTAAGAAAA

Tests used:
Assay in all cases: EMSA
[1] = biological target: T1, DtxR (Corynebacterium diphtheriae, UniProt P0DJL7 P0DJL7:1-226); settings: chain copies: 4
T1 sequence: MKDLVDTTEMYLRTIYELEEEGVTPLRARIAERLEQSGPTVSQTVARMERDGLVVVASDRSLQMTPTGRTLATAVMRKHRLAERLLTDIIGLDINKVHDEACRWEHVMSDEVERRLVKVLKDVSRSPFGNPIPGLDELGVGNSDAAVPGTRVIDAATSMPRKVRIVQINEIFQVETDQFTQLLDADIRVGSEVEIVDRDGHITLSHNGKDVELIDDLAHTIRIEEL

[2] = biological target: T2, SirR (UniProt Q5HRA0 Q5HRA0:1-214)
T2 sequence: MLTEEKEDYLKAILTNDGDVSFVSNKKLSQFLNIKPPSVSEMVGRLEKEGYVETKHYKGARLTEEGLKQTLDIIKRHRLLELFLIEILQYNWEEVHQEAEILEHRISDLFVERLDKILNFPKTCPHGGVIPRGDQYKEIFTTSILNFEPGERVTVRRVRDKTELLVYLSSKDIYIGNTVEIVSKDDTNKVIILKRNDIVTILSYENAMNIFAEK

[3] = biological target: EfaR (Enterococcus faecalis, UniProt Q93CH5 Q93CH5:1-222); settings: tags: untagged (pQN vector); label: 32P

| Binder | binding result [1] | also measured |
| --- | --- | --- |
| B1 | no binding |  |
| B2 | binds |  |
| B3 |  | binding result [2]: binds |
| B4 |  | binding result [3]: binds |
